According to paper PMC2748841 (Nature, 2009):

Target: biotin-Aβ42-oligomer (UniProt P05067)
Test: binding of biotinylated ligand to transfected cells

Binder | Kd [nM]
Transmembrane protein 30B (TMEM30B) (natural protein) MTWSATARGAHQPDNTAFTQQRLPAWQPLLSASIALPLFFCAGLAFIGLGLGLYYSSNGIKELEYDYTGDPGTGNCSVCAAAGQGRALPPPCSCAWYFSLPELFQGPVYLYYELTNFYQNNRRYGVSRDDAQLSGLPSALRHPVNECAPYQRSAAGLPIAPCGAIANSLFNDSFSLWHQRQPGGPYVEVPLDRSGIAWWTDYHVKFRNPPLVNGSLALAFQGTAPPPNWRRPVYELSPDPNNTGFINQDFVVWMRTAALPTFRKLYARIRQGNYSAGLPRGAYRVNITYNYPVRAFGGHKLLIFSSISWMGGKNPFLGIAYLVVGSLCILTGFVMLVVYIRYQDQDDDDEE | 720
cellular Prion Protein (PrP^C), full-length mouse PrP expressed on COS-7 cells (receptor) not shown | 92
Amyloid precursor-like protein 1 (APLP1) (natural protein) SLAGGSPGAAEAPGSAQVAGLCGRLTLHRDLRTGRWEPDPQRSRRCLRDPQRVLEYCRQMYPELQIARVEQATQAIPMERWCGGSRSGSCAHPHHQVVPFRCLPGEFVSEALLVPEGCRFLHQERMDQCESSTRRHQEAQEACSSQGLILHGSGMLLPCGSDRFRGVEYVCCPPPGTPDPSGTAVGDPSTRSWPPGSRVEGAEDEEEEESFPQPVDDYFVEPPQAEEEEETVPPPSSHTLAVVGKVTPTPRPTDGVDIYFGMPGEISEHEGFLRAKMDLEERRMRQINEVMREWAMADNQSKNLPKADRQALNEHFQSILQTLEEQVSGERQRLVETHATRVIALINDQRRAALEGFLAALQADPPQAERVLLALRRYLRAEQKEQRHTLRHYQHVAAVDPEKAQQMRFQVHTHLQVIEERVNQSLGLLDQNPHLAQELRPQIQELLHSEHLGPSELEAPAPGGSSEDKGGLQPPDSKDDTPMTLPKGSTEQDAASPEKEKMNPLEQYERKVNASVPRGFPFHSSEIQRDELAPAGTGVSREAVSGLLIMGAGGGSLIVLSMLLLRRKKPYGAISHGVVEVDPMLTLEEQQLRELQRHGYENPTYRFLEERP | 660
